Tests used:
[1] = target: mouse dorsal root ganglion (DRG) neurons (surface proteins that the peptides bind are not identified) (mouse (C57BL/6)); test: phage binding to cultured DRG neurons, anti-fd immunostaining, confocal microscopy
[2] = target: mouse dorsal root ganglion (DRG) neurons (surface proteins that the peptides bind are not identified) (mouse (C57BL/6)); test: double staining of isolated DRG neurons incubated with DRG-p1 and GST-DRG3, antibodies against phage and GST
[3] = target: mouse dorsal root ganglion (DRG) neurons (surface proteins that the peptides bind are not identified) (mouse (C57BL/6)); test: synthetic peptide DRG2 at 10^-4 M; competitor phage DRG-p2 on cultured DRG neurons, anti-fd immunostaining
[4] = target: mouse dorsal root ganglion (DRG) neurons (surface proteins that the peptides bind are not identified) (mouse (C57BL/6)); test: synthetic peptide DRG2 at 10^-6 M; competitor phage DRG-p2 on cultured DRG neurons, anti-fd immunostaining
[5] = target: mouse dorsal root ganglion (DRG) neurons (surface proteins that the peptides bind are not identified) (mouse (C57BL/6)); test: synthetic peptide DRG1 at 10^-6 M; competitor phage DRG-p1 on cultured DRG neurons, anti-fd immunostaining
[6] = target: mouse dorsal root ganglion (DRG) neurons (surface proteins that the peptides bind are not identified) (mouse (C57BL/6)); test: synthetic peptide DRG1 at 10^-4 M; competitor phage DRG-p1 on cultured DRG neurons, anti-fd immunostaining
[7] = target: mouse dorsal root ganglion (DRG) neurons (surface proteins that the peptides bind are not identified) (mouse (C57BL/6)); test: synthetic peptide DRG3 at 10^-6 M; competitor phage DRG-p3 on cultured DRG neurons, anti-fd immunostaining
[8] = target: mouse dorsal root ganglion (DRG) neurons (surface proteins that the peptides bind are not identified) (mouse (C57BL/6)); test: synthetic peptide DRG3 at 10^-4 M; competitor phage DRG-p3 on cultured DRG neurons, anti-fd immunostaining

**Q.** How did the percent of DRG neurons bound [1] turn out when “phage clone DRG-p1 (M13 phage displaying the DRG1 peptide SPGARAF on pIII)” was run?
**A.** 38%

**Q.** And the percent of GST-DRG3-positive neurons with double positive staining [2]?
**A.** 71%

**Q.** For “phage clone DRG-p3 (M13 phage displaying the DRG3 peptide FGQKASS on pIII)”, which percent of DRG neurons bound [1] is on record?
**A.** 29%

**Q.** How did the percent of DRG neurons bound [1] turn out when “phage clone DRG-p2 (M13 phage displaying the DRG2 peptide DGPWRKM on pIII)” was run?
**A.** 43%

**Q.** Which percent of anti-phage staining blocked [3] does the source give for DGPWRKM [synthetic peptide DRG2: DGPWRKM] here?
**A.** 94%

**Q.** And the percent of anti-phage staining blocked [4]?
**A.** 54%

**Q.** With SPGARAF [synthetic peptide DRG1: SPGARAF] as the molecule, how does the percent of anti-phage staining blocked [5] read?
**A.** 47%

**Q.** What about the percent of anti-phage staining blocked [6] of the same molecule?
**A.** 97%

**Q.** Which results are given for FGQKASS [synthetic peptide DRG3: FGQKASS]?
**A.** percent of anti-phage staining blocked [7]: 53%; percent of anti-phage staining blocked [8]: 94%

Source: US20150098990A1
